{"source": "the nanobody polyreactivity screen of Harvey et al. (2022)"}
{"assay": "yeast display, Sf9 membrane polyspecificity reagent, FACS + sequencing; frameworks hold sequencing errors", "summary_of_the_method": "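After 36–48 hours of galactose induction, yeast (Saccharomyces cerevisiae BJ5465) displaying a synthetic nanobody library were stained at 4 °C for 1 hour with 10% biotinylated, detergent-solubilized Sf9 membrane reagent. Streptavidin microbeads enriched the stained cells before FACS sorting into low and high (top ~1%) gates on anti-HA and streptavidin fluorescence. Each clone's polyreactivity label reflects its gate of origin.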"}
{"sequence": "QVQLVESGGGLVQAGGSLRLSCAASGFIFAGYAMGWYRQAPGKERELVAAISSRGGSTYYADSVKGRFTISRDNAKNTVYLQMNSLKPEDTAVYYCNKYYYGFTPDGYKKMDYWGQGTQVTVSS", "polyreactivity (PSR sort gate)": "low polyreactivity"}
{"sequence": "QVQLVESGGGLVQAGGSLRLSCAASGFIFLYYAMGWYRQAPGKERELVAAITTRGGRTYYADSVKGRFTISRDNAKNTVYLQMNSLKPEDTAVYYCAVQVSWSYYRYGYWGQGTQVTVSS", "polyreactivity (PSR sort gate)": "low polyreactivity"}
{"sequence": "QVQLVESGGGLVQAGGSLRLSCAASGRIFTHYAMGWYRQAPGKERELVASISWSGGSTNYADSVKGRFTMSRDNAMNTVYLQMNSLKPEDTAVYYCARKYRYLFATFDYWGQGTQVTVSS", "polyreactivity (PSR sort gate)": "high polyreactivity"}
{"sequence": "QVQVVESGGGLVQAGGSLRLSCAASGSIFSWNAMGWYRQAPGKERELVAAISKRGTSTYYADSVKGRFTISRDNAKNTVYLQMNSLKPEDTAVYYCAVSRIVDFGQKMYYWGQGTQVTVSS", "polyreactivity (PSR sort gate)": "high polyreactivity"}
{"sequence": "QVQLVESGGGLVQAGGSLPLSCAASGSIFFFNAMGWYRQATGKEREFVAAITSSSGRTYYADSVKGRFTISRDNANNTVYLQMNSLKPEDSAVYFCAAQVPEDTETVDYWGQGTQVTVSS", "polyreactivity (PSR sort gate)": "low polyreactivity"}
{"sequence": "QVQLVESGGGLVQAGGSLRLSCAASGGTFERNAMGWYIQAPGKERELVAGMSKISGRTYYADSVKGRFTISRDNAKNTVYLQMNCLKPEDTAVYYCNKVSRSSYGYWGQGTQVTVSS", "polyreactivity (PSR sort gate)": "high polyreactivity"}
{"sequence": "QVQLVESGGGLVQAGGSLRLSCAASGSIFDLYAMGWYRQAPGTERELVADISIADSTNYADSVKGRFTISRDNAKNTVYLQMNSLKPEDTAVYYCNADVWWYSYEYDYWGQGTQVTVSS", "polyreactivity (PSR sort gate)": "low polyreactivity"}
{"sequence": "QVQLVESGGGLVQAGGSLRLSCAASGIIFSRYAMGWYRQAPGKERELVAVISSSGGRTYYADSVKGRFTISRDNAKNTVYLQMNSLKPEDTAVYYCAAYTRTGSHLRAYYYWGQGTQVTVSS", "polyreactivity (PSR sort gate)": "high polyreactivity"}
{"sequence": "QVQLVESGGGLVQAGGSLRLSCAASGSIFSKYAMGWYRQAPGKEREFVAAISRSGGRTYYADSVKGRFTISRDNAKNTVYLQMNSLKPEDTAVYYCAAYPYNPRRRTEGDYWGQGTQVTVSS", "polyreactivity (PSR sort gate)": "high polyreactivity"}
{"sequence": "QVQLVESGGGLVQAGGSLRLSCAASGSTIYVKAMGWYRQAPGKEREFVAAITWNSGSTYYADSVKGRFTISRDNAKKTVYLQINSLKPEDTAVYYCAAVLSVLVYGYVYWGQGTQVTVSS", "polyreactivity (PSR sort gate)": "low polyreactivity"}
{"sequence": "QVQLVESGGGLVQAGGSLRLSCAASGRIFALYAMGWYRQAPGKERELVATITRSGTNTYYADSVKGRFTISRDNAKNTVYLQMNRLKPEDTAVYYCAAYRFWQRTMGYWGQGTQVTVSS", "polyreactivity (PSR sort gate)": "high polyreactivity"}
{"sequence": "QVQLVESGGGLVQAGGSLRLSCADSGRTFGRNVMGWYRQAPGKERELVASITRSGGSTYYADSVKGRFTISRDTAKNTVYLEMNSLKPEDTAVYYCAKCYYLWCSYWGPSQYDWGQGSQVTVSS", "polyreactivity (PSR sort gate)": "high polyreactivity"}
{"sequence": "QVQLVESGGGLVQAGGSLRLSCDASGFTFYRYAMGWYRQAPGKERELVAAISSSGSSTYYADSVKGRFTISRDNAKNTVYLQMNSLKPEDTAVYYCAKRLGGSRPYYYWGQGTQVTVSS", "polyreactivity (PSR sort gate)": "high polyreactivity"}
{"sequence": "QVQLVESGGGLVQAGGSLRLSCAASGFTININDMRGYRQAPGIDTDLVAALSWNVGNRYYADSVKGRFTISRDNAKNTVYLQMKSLKPEDTAVYYCAADRYIRWVEFDYWGQGTQVTVSS", "polyreactivity (PSR sort gate)": "low polyreactivity"}
{"sequence": "QVQLVESGGGLVQAGGSLRLSCAASGFTFTDYAMGWYRQAPGKERELVAAITKGGGRTYYADSVKGRFTISRDNAKNTVYLQMNSLKPEDTAVYYCNARYQVPYGYWGQGTQVTVSS", "polyreactivity (PSR sort gate)": "low polyreactivity"}
{"sequence": "QVQLVESGGGLVQAGGSLRLSCAASGFTIYRYAMGWYRQAPGKERELVAAITGGGGSTYYADSVKGRFTISRDNAKNTVYLQMNSLKPEVTAVYYCAVDVYHKGQYRWSYGYWGQGTQVTVSS", "polyreactivity (PSR sort gate)": "low polyreactivity"}
{"sequence": "QVQLVDSGVGLVQAGGRLRLSCAASGRIFPFNAMGWYRQSPGKERELVAAITSSGGRTYYADSVKGRFTISRDNAKNTVYLQMNSLKPVDTAVYYCAATLVRRARSGPMGYWGQGTQVTVSS", "polyreactivity (PSR sort gate)": "high polyreactivity"}
{"sequence": "QVQLVESGGGLVQAGGSLRLSCAASGSIFYYYAMGRYRQAPGKERELVAAISSGGDTHYADSVKGRFTISRDNAKNTVYLQMNSLKPEDTAVFYCAAQRRYHQDTTIGPGNYYYWGQGTQVTVSS", "polyreactivity (PSR sort gate)": "low polyreactivity"}
{"sequence": "QVQRVDSGGGLVQAGGSLRLSCDPSGRTHDVNAMGWYRQAPWKERQLVAAISYSGGITYYADSVKGRFTISRDNAKNTVYLQMNSLKPEDTAVYYCAVVGGYPSYTVDYWGQGSQVTVSS", "polyreactivity (PSR sort gate)": "low polyreactivity"}
{"sequence": "QVQLVESGGGLVQAARSLRLSCAASGRIFNYYAMGWYRLAPGKERELVAAINSGGSTYADSVKGRFTISRDNAKNTVYLPMNSLKPEDTAVYYCAKDGQLQSGRERPSGYDHWGQGTQVTVSS", "polyreactivity (PSR sort gate)": "low polyreactivity"}
{"sequence": "QVQLVESGGGLVQAGGSLRLSCAASGFTLYDNAMGWYRQAPWKERELVAAISWSGGSTYYADSVKGRFTISRDNAKNTVYLQMNRLKPEDTAVYYCATDFVSYAEGRMEYWGLGTQVTVSS", "polyreactivity (PSR sort gate)": "low polyreactivity"}
{"sequence": "QVQLVESVVGLVQAGGSLRLICAASGIIISRYAMECYRQAPGKERELVAAITRSGGDTYYADSVKGRFTISRDNAKNTVYLQMNSLKPEDTAVYYCAASSSWYEDHDYWGQGTQVTVSS", "polyreactivity (PSR sort gate)": "low polyreactivity"}
{"sequence": "QVQLVESGGGLDQAGGSLRLSCAASGSTFLTNAMGGYRQAPGKEMELVAVISLISGPTYYADSVKVRFTISRDNAKNTVYLQMNRLKPEDTAVYYSATDPYWNSPYVKYDYWGQGTQVTVSS", "polyreactivity (PSR sort gate)": "high polyreactivity"}
{"sequence": "QVQLVESGGGLVQAGGSLRLTCAASGRTFAYNAMGWYRQAPGKERELVAAITSSGTSTYYADSVKGRFTISRDNAKNTVYLQINCLKPEDTAVYYCAGRQSQKYGLFYYWGQGTQVTVSS", "polyreactivity (PSR sort gate)": "high polyreactivity"}
{"sequence": "QVQLVESGGGLVQAGGSLRLSCAGSGRIFYVYAMGWYRQAPGKERELVAAISRGGSTNYADSVKGRFTISRDNAKNTVYLQMNSLKPEDTAVYYCAASSLPHYSFRHSYLYEYWGQGTQVTVSS", "polyreactivity (PSR sort gate)": "low polyreactivity"}
{"sequence": "QVQLVESGGGLVQAGGSLRLSCAASGITFKRYAMGWYRQAPGKERELVAAITWRGARTYYADSVKGRFTISRDNAKNTVYLQMNSLKPEDTAVYYCAADGYSGSGPYDYWGQGTQVTVSS", "polyreactivity (PSR sort gate)": "high polyreactivity"}
{"sequence": "QVQLVESGGGLVQAGGSLRLSCAASGSIFPDYGMGWYRQAPGKEREFVAAIDWSGTSTYYADSVKGRFTISRDNAKNTVYLQMNSLKPEDTAVYYCAARWDKSPFKLYDSWGQGTQVTVSS", "polyreactivity (PSR sort gate)": "low polyreactivity"}
{"sequence": "QVQLVESGGGLVQAGGSLRLSCAASGSIFVPYAMGWYRQAPGKERELVAAISNGDSTYYADSVKGRFTISRDNAKNTVYLQMNSLKPEDTAVYYCATRGIPDDNARDYWGQGTQVTVSS", "polyreactivity (PSR sort gate)": "low polyreactivity"}
{"sequence": "QVQLVESGGGLVQAGGSLRLSCAASGRIFQPYAMGWYRPAPGKERELVAVITSGGSTNYADSVKGRFTISRDNAKNTVYLQMNSLKPEDTAVYYCNAVRTVNDYHYDYWGQGTQVTVSS", "polyreactivity (PSR sort gate)": "high polyreactivity"}
{"sequence": "QVQLVESGGGLVQAGGSLRLICAASGRTIGRNAMRWSRQAPGKERELVAAISSSGGSTYYADSVKGRFTISRDKAKNTVYLQMNSLKPEDTAVYYCNARGWYGLRKYYYWGQGTQVTVSS", "polyreactivity (PSR sort gate)": "high polyreactivity"}
{"sequence": "QVQLVESVGGLVQAGGSHRLSCAASGRTFQSNGMGWYRHAPGKERELDAAITWSSGTTYYADSVKGRFTISRDNAKNTVYLQMNSLKPEDTAVYYCAADCGHRNCLYYSGFGYWGQGTQVTVSS", "polyreactivity (PSR sort gate)": "low polyreactivity"}
{"sequence": "QVQLVESGGGLVQAGGSLRLSCAASGHFFFYYTMGWYRPAPGKERELVAGITIGGSTNYADSVKGRFTISRDNAKHTVYVQMNSLKPEDTPVYYCNVVKYVYIYSYWEYYYCGQGTQVTVSS", "polyreactivity (PSR sort gate)": "low polyreactivity"}
